In this experiment the target is T1, CRF2R.
T1 sequence (Q13324 whole entry, species assumed, looked up): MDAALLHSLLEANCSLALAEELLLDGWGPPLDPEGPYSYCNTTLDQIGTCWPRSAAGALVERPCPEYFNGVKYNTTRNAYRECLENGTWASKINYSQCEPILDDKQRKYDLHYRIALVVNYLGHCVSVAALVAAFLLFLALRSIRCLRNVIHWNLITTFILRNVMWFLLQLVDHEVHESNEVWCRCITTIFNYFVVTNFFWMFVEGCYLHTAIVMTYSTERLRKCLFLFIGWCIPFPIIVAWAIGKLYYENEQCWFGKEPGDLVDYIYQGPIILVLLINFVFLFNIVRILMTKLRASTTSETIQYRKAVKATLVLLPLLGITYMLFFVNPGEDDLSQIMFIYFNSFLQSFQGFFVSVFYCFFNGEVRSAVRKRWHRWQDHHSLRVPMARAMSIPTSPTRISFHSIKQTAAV
The experiment can be described thus: cell-based or functional assay.

This note sets out measurements from patent US20030148957A1 (PROCTER AND GAMBLE, published 2003).

Ends that are not written are not given here.

Take IVLSLDVPIGLLQELLEMARAEQLAQQAHSNRKLMEII-NH2 [SEQ ID NO 1]: the “CRF2R (Emax %)” value was 100%.
